Residue numbers refer to the chain shown, from its start.
B1: AVP07-63 anti-HER2 diabody (Cys at Kabat L8 and L12, CDR3H cysteines removed, N-terminal serine; Myc+(His)6 tag) (other)
chain: SVQLVQSGAEVKKPGESLKISCKGSGYSFTSYWIAWVRQMPGKGLEYMGLIYPGDSDTKYSPSFQGQVTISVDKSVSTAYLQWSSLKPSDSAVYFCARHDVGYASSSNAAKWPEYFQHWGQGTLVTVSSGGGGSQSVLTQPCSSCAAPGQKVTISCSGSSSNIGNNYVSWYQQLPGTVPKLLIYGHTNRPAGVPDRFSGSKSGTSASLAISGFRSEDEADYYCAAWDDSLSGWVFGGGTKLTVLG
notes: Diabody
B2: AVP07-63-PEG24 L8-L12 Diabody (other)
VH-linker-VL polypeptide of the diabody: B1 chain
modifications: engineered cysteines at Kabat L8 and L12 (VL FR1) conjugated with maleimide-PEG24-methoxy
notes: also called PEGylated AVP07-63
B3: AVP07-68 anti-HER2 diabody (Cys at Kabat L8 and L12, CDR3H cysteines removed, N-terminal serine; (His)6 tag) (other)
chain: B1 chain
notes: Diabody; It is identical to AVP07-63 except that it carries only the C-terminal (His)6 tag
B4: AVP07-17 anti-HER2 diabody (other)
chain: B1 chain with S1Q, A104C, A109C, C142P, S144V, C145S
notes: Diabody of two VH-Gly4Ser-VL chains from a human anti-HER2 mAb, with a lambda VL; also called AVP07-17 Avibody
B5: AVP07-71 anti-HER2 scFv (Cys at Kabat L8 and L12, CDR3H cysteines removed, N-terminal serine) (scFv)
scFv: SVQLVQSGAEVKKPGESLKISCKGSGYSFTSYWIAWVRQMPGKGLEYMGLIYPGDSDTKYSPSFQGQVTISVDKSVSTAYLQWSSLKPSDSAVYFCARHDVGYASSSNAAKWPEYFQHWGQGTLVTVSSGGGGSGGGGSGGGGSQSVLTQPCSSCAAPGQKVTISCSGSSSNIGNNYVSWYQQLPGTVPKLLIYGHTNRPAGVPDRFSGSKSGTSASLAISGFRSEDEADYYCAAWDDSLSGWVFGGGTKLTVLG
notes: Monomeric scFv, unconjugated

How the values were obtained:
[1] = biological target: T1, recombinant HER2 ectodomain (UniProt P04626 23-652, limits assumed); experiment: column shift assay: size exclusion chromatography of the Avibody with and without soluble antigen (recombinant HER2 ectodomain), A280
T1 construct: extracellular domain

[2] = biological target: T1, recombinant HER2 ectodomain; experiment: column shift assay: size exclusion chromatography of the PEG24 conjugate with and without soluble antigen (recombinant HER2 ectodomain), A280
[3] = biological target: T1, recombinant HER2 ectodomain; experiment: column shift assay: size exclusion chromatography of the Avibody with and without soluble antigen (recombinant HER2 ectodomain), A280; remark: listed apart in the source

Binder | binding result [1] | further results
B1 | binds | –
B2 | – | binding result [2]: binds
B3 | – | binding result [3]: binds
B4 | binds | –
B5 | binds | –
